Data as given in PMC3669275.

What was measured:
[1] = target: HIV-1 HXB2 Env (gp160; gp41) expressed on CHO-Env cells (HIV-1 HXB2) (UniProt P04578)
[2] = target: HIV-1 HXB2 Env (gp160; gp41) expressed on CHO-Env cells (HIV-1 HXB2) (UniProt P04578); remark: listed apart in the source
[3] = target: 3NC, recombinant protein with a triplicate N36-GGSGG-C34 (HIV-1); assay: SPR; BIACORE X; 3NC (100 µg/ml) amine-coupled to a CM5 chip; C60 or POB1 (333–461) injected at 20 µl/min; 10 mM HEPES pH 7.4, 0.15 M NaCl, 3.4 mM EDTA, 0.005% P20

“C60, recombinant POB1 (462–521) (domain or fragment)” gave an IC50 of inhibition of HIV-1 Env-mediated cell-cell fusion (syncytium formation, CHO-Env with 3T3.T4.CXCR4 cells) [1] of 1.09 µM, an IC50 of inhibition of infection of MT-2 cells by HIV-1 IIIB (X4-tropic), p24 ELISA [2] of 15.3 µM and an IC50 of inhibition of infection of TZM-bl cells by HIV-1 Bal (R5-tropic; the Env is that of strain Bal), luciferase [2] of 9.21 µM. It also gave a Kd [3] of 0.0155 µM.
